Data from PMC5376981 (Scientific Reports, 2014).

What was measured:
3D7-DBL2X = 3D7-DBL2X (Plasmodium falciparum 3D7, UniProt Q8I639, strain); assay: ELISA
FCR3-DBL3X = FCR3-DBL3X (Plasmodium falciparum FCR3, UniProt Q6UDW7, strain); assay: ELISA
[1] = molecular target: native VAR2CSA on FCR3-CSA infected erythrocytes (Plasmodium falciparum FCR3, UniProt Q6UDW7, strain); assay: flow cytometry on cells
[2] = molecular target: full-length VAR2CSA recombinant protein (3D7-DBL1X-6ε) (Plasmodium falciparum 3D7, UniProt Q8I639, strain); assay: SPR
FCR3-DBL6ε = FCR3-DBL6ε (Plasmodium falciparum FCR3, UniProt Q6UDW7, strain); assay: ELISA
3D7-DBL1X = 3D7-DBL1X (Plasmodium falciparum 3D7, UniProt Q8I639, strain); assay: ELISA
3D7-DBL1X-3X = 3D7-DBL1X-3X (Plasmodium falciparum 3D7, UniProt Q8I639, strain); assay: ELISA
[3] = molecular target: native VAR2CSA on NF54-CSA infected erythrocytes (Plasmodium falciparum NF54 (parent of …, UniProt Q8I639, strain)); assay: flow cytometry on cells

Binder	binding result (3D7-DBL2X)	binding result (FCR3-DBL3X)	binding result [1]	Kd [2]	koff [2]	kon [2]	binding result (FCR3-DBL6ε)	binding result (3D7-DBL1X)	binding result (3D7-DBL1X-3X)	binding result [3]
VHH889 (VHH) VHH: QVQLQESGGGLVQAGGSLRLSCAASGRSFSSYAMGWFRQAPGKEREFVATITWSGGSTYYADSVKGRFTISGDSAENTVYLQMNSLKPEDTAVYYCAADETSAPLYRAYEAQYDYWGQGTQVTVSS	no binding (tested: 0.3 µg/ml)	no binding (tested: 0.3 µg/ml)	binds	700 nM	0.035 s⁻¹	54000 M⁻¹ s⁻¹				
VHH891 (VHH) VHH: QVQLQESGGGLVQTGDSLRLSCAASGRTFSSYAMGWFRQAPGKEREFVAAITWGDGSADYADSVKGRFTISRDNAENTVYLQMNSLKPEDTAVYYCAAETVGAPIYTLGYSEAYDYWGQGTQVTVSS	no binding (tested: 0.3 µg/ml)	no binding (tested: 0.3 µg/ml)	binds	700 nM	0.0014 s⁻¹	2050 M⁻¹ s⁻¹				
VHH895 (VHH) VHH: QVQLQESGGGLVQAGGSLRVSCAASGRALSDYAMGWFRQTPGKEREFVAAISWNGGNTYYADSVKGRFTISRDNAENTVYLQMNSLKPEDTAVYYCAANDLAVPGLLMPRVETYDYWGQGTQVTVSS			binds	800 nM	87.2 s⁻¹	1.1e+08 M⁻¹ s⁻¹				
VHH897 (VHH) VHH: QVQLQESGGGLVQAGGSLRISCAASGRTFSDYAMGWFRQAPGKEREFVAAISWNGDNTYYADSVKGRFTISRDNAKNTVYLQMNSLKPEDTAVYYCAANDLAVPGLLMPRVETYDYWGQGTQVTVSS			binds	43 nM	0.0013 s⁻¹	31000 M⁻¹ s⁻¹				
VHH893 (VHH) VHH: QVQLQESGGGLVQAGGSLRLSCAASGFTFDDYAIGWFRQAPGKEREGVSCISSGDGGTYYADSVKGRFTISSDNAENTVALQMNSLKPEDTAVYYCAAVYGSCWDGLLYRTDSYEYDGWGQGTQVTVSS			no binding (tested: 100 µg/ml)	27 nM	0.0017 s⁻¹	60000 M⁻¹ s⁻¹				
VHH863 (VHH) VHH: QVQLQESGGGLVQTGGSLRLSCAASGRTFMDYVMGWFRQAPGKEREFVASISWTDSTRYTDSVKGRFTASRDDAEATVYLQMNNLQFEDTAVYYCARGAGRGHSVSAGDYVYWGQGTQVTVSS			no binding (tested: 100 µg/ml)	46 nM	0.0014 s⁻¹	31000 M⁻¹ s⁻¹	no binding (tested: 0.3 µg/ml)			
VHH864 (VHH) VHH: QVQLQESGGGLVQTGGSLRLSCAASGRTFMDYVMGWFRQAPGKEREFVASISWTDSTRYTDSVKGRFTASRDDAKATVYLQMNNLQFEDTAVYYCARGAGRGHSVSAGDYVYWGQGTQVTVSS			no binding (tested: 100 µg/ml)	18 nM	0.00063 s⁻¹	34000 M⁻¹ s⁻¹	no binding (tested: 0.3 µg/ml)			
VHH874 (VHH) VHH: QVQLQESGGGLVQAGGSLRLSCAASGRAFSDYAMGWFRQAPGKERDFVAAISWNGGNTYYSDSVKGRFTISRDNAKNTVYLQMNSLKPEDTAVYYCAANDLAVPELLMPRVETYDYWGQGTQVTVSS	no binding (tested: 0.3 µg/ml)	no binding (tested: 0.3 µg/ml)	binds					binds	binds	binds
VHH905 (VHH) VHH: QVQLQESGGGLVQAGGSLRLSCAASGRTFSSYAMGWFRQAPGKEREFVAAISWNGGSTYYADSVKGRFTISRDNAENTGYLQMNSLKPEDTAVYYCAANDLMVPELLMPRVETYDYWGQGTQVTVSS			binds					binds	binds	binds
VHH859 (VHH) VHH: QVQLQESGGGLVQAGGSLRLSCAASGRTFSSYAMGWFRQAPGKEREFVAAISWNGSSTYYADSVKGRFTISRDNAKNTVYLQMNSLKPEDTAVYYCAANDLLVPELLMSRVEVYDYWGQGTQVTVSS	no binding (tested: 0.3 µg/ml)	no binding (tested: 0.3 µg/ml)	binds	300 nM	0.0032 s⁻¹	12000 M⁻¹ s⁻¹				
VHH860 (VHH) VHH: QVQLQESGGGLVQAGGSLRLSCAASGRAFSDYAMGWFRQAPGKERDFVAAISWNGGNTYYSDSVKGRFTISRDNAENTVYLQMNSLKPEDTAVYYCAANDLAVPELLMPRVETYDYWGQGTQVTVSS	no binding (tested: 0.3 µg/ml)	no binding (tested: 0.3 µg/ml)	binds	28 nM	0.0013 s⁻¹	46000 M⁻¹ s⁻¹				
VHH867 (VHH) VHH: QVQLQESGGGLVQAGGSLRLSCAASGFTLDDYGIGWFRQAPGKEREGVSFISSSDGTTDYADSVKGRFTISSDNAKNTVYLQMNSLKPEDTAVYYCAAVEQRVPFLSVLHEAIYDYWGQGTQVTVSS	no binding (tested: 0.3 µg/ml)	no binding (tested: 0.3 µg/ml)	binds	300 nM	0.0027 s⁻¹	8690 M⁻¹ s⁻¹				
VHH871 (VHH) VHH: QVQLQESGGGLVQAGGSLRLSCAASGSIFSIHAMGWYRQAPGKQRELVAAITSGGSTNYGDSVKGRFTISEDNAKNTVYLQMNGLKPEDTAVYYCAADNDGLGYVYWGQGTQVTVSS	no binding (tested: 0.3 µg/ml)	no binding (tested: 0.3 µg/ml)	binds	200 nM	3.9e-05 s⁻¹	216 M⁻¹ s⁻¹				
VHH879 (VHH) VHH: QVQLQESGGGLVQAGGSLRLSCAASGRTFSDYAMGWFRQAPGKDREFVAAISWSGDRTYYADSVKGRFTISRDNAKNTVYLQMNSLKPEDTAVYHCAANDLMVPELLMPRVESYDYWGQGTQVTVSS	no binding (tested: 0.3 µg/ml)	no binding (tested: 0.3 µg/ml)	binds	19 nM	0.0015 s⁻¹	79000 M⁻¹ s⁻¹				
VHH880 (VHH) VHH: QVQLQESGGGLVQAGGSLRLSCAASGRTFSDYAMGWFRQAPGKDREFVAAISWSGDRTYYADSVKGRFTISRDNAENTVYLQMNSLKPEDTAVYHCAANDLMVPELLMPRVESYDYWGQGTQVTVSS	no binding (tested: 0.3 µg/ml)	no binding (tested: 0.3 µg/ml)	binds	100 nM	0.0018 s⁻¹	15000 M⁻¹ s⁻¹				
VHH883 (VHH) VHH: QVQLQESGGGLVQAGGSLRLSCAASGRTFSSYAMGWFRQAPGKEREFVAAISWSGDTTYYADSVKGRFTISRDNAKNTVSLQMNSLKPEDTAVYYCAANDLMVPALLMPRLESYDYWGQGTQVTVSS	no binding (tested: 0.3 µg/ml)	no binding (tested: 0.3 µg/ml)	binds	10 nM	0.0017 s⁻¹	170000 M⁻¹ s⁻¹				
VHH884 (VHH) VHH: QVQLQESGGGLVQAGGSLRLSCAASGRTFSNYAMGWFRQAPGKEREFVAAISWNGGSTYYADSAKGRFTISRDNAENTVYLQMNSLKPEDTAVYRCAANDLMVPELLMPRVETYDYWGQGTQVTVSS	no binding (tested: 0.3 µg/ml)	no binding (tested: 0.3 µg/ml)	binds	400 nM	0.0036 s⁻¹	9860 M⁻¹ s⁻¹				
